Test system: MS2 coat protein
Assay: apparent KD of MS2 coat protein; designed switch direction (-1 OFF switch, 1 ON switch): 1; higher = weaker reporter binding
Procedure, shortened: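 Designed RNA switches sharing common flanks were transcribed on Illumina chips by stalled E. coli RNA polymerase. They were titrated with SNAP-549-labelled MS2 coat protein, from 0.7 or 1.5 nM doubling to 3 µM, in Tris-HCl pH 7.5 buffer with KCl, MgCl2, BSA, DTT, tRNA and Tween-20. Titrations ran without input, with 200 uM small-molecule ligand, or with an oligonucleotide input. The apparent KD of each design is the median over its clusters, after curve-fitting of normalised cluster fluorescence.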

[1] = Eterna round: R95, input ligand: FMN 200 uM
[2] = Eterna round: R95, input ligand: microRNA oligo, concentration not stated
[3] = Eterna round: R95, input ligand: none
[4] = input ligand: microRNA oligo, concentration not stated

## GAUAAACAUGAGGAUCACCCAUGUAAUAAUAUGGGAGGAUAUCAGAAUGUAUGUAUGUAAUGAGAAGGCCUAAAUG [Mat - Same State 1 - Mod of Eli - D73] (puzzle: Same State 1)
[1]
  apparent KD of MS2 coat protein: 104 nM
[2]
  apparent KD of MS2 coat protein: 425 nM
[3]
  apparent KD of MS2 coat protein: 309 nM

## GCUCGAUGAAUGUCCUACAUGAGGAUCACCCAUGUUCGUGGGCAGGAUAUUUACAUGCAGAGUGUAGAGAAGGGCCCAUCGAGC [SameState NG3 #63] (Eterna round: R96, puzzle: Same State NG 3)
Input ligand: FMN 200 uM
  apparent KD of MS2 coat protein: 43.4 nM
[4]
  apparent KD of MS2 coat protein: 63.7 nM
Input ligand: none
  apparent KD of MS2 coat protein: 85.1 nM

## UACUUGGUGGUAGGAUAUGUAGGAUAUGGCGAGAGCUAAGCUUGGAAGUCACUUCAGCCAGAAGGACAGAAGGACCAGUAUCUC [pwkr ssNG2 2FMN + F9.11] (Eterna round: R96, puzzle: Same State NG 2)
Input ligand: FMN 200 uM
  apparent KD of MS2 coat protein: 1450 nM
[4]
  apparent KD of MS2 coat protein: 11.5 nM
Input ligand: none
  apparent KD of MS2 coat protein: 81.6 nM

## UGCUAGUGGGUAGGAUAUUUAGGAUAUGCGGAAGACUAAGUCUGUAGGUCACCUAACGCAGAAGGAGAGAAGGACCCUUCAGCU [pwkr ssNG2 2FMN + F9.29] (Eterna round: R96, puzzle: Same State NG 2)
Input ligand: FMN 200 uM
  apparent KD of MS2 coat protein: 143 nM
[4]
  apparent KD of MS2 coat protein: 16.8 nM
Input ligand: none
  apparent KD of MS2 coat protein: 12.8 nM

## GCUCGACGUGUUGUCUACAUGAGGAUCACCCAUGUAGGUGCGGAGGAUAUCUACGUGCUUUAUGUAGAGAAGGUCGUGUCGAGC [SameState NG3 #87] (Eterna round: R96, puzzle: Same State NG 3)
Input ligand: FMN 200 uM
  apparent KD of MS2 coat protein: 32.4 nM
[4]
  apparent KD of MS2 coat protein: 55.3 nM
Input ligand: none
  apparent KD of MS2 coat protein: 66.4 nM

## AGUCCUGAAUAAAUUAAACAGAGACAUGUACAUGAGGAUCACCCAUGUCAUGUGCAAGUUUUUUGCUCGUCAUAUAA [Sensorship 17 - Jieux - Sensor for hsa-mir-208a] (puzzle: Sensor for hsa-mir-208a)
[1]
  apparent KD of MS2 coat protein: 13.7 nM
[2]
  apparent KD of MS2 coat protein: 10.7 nM
[3]
  apparent KD of MS2 coat protein: 14.9 nM

## AAACAUGAGCGAGGAUAUGCAGAGGAUCACCCUGUAGAAGGCGCAUGUAAAACAACAUGAGGAUCACCCAUGUCAUGUACAUGA (Eterna round: R96, puzzle: Same State NG 1)
Input ligand: FMN 200 uM
  apparent KD of MS2 coat protein: 19.4 nM
[4]
  apparent KD of MS2 coat protein: 15.3 nM
Input ligand: none
  apparent KD of MS2 coat protein: 20.2 nM

## AUUUUUAAUGCAGGAUAUGAUUAACAUGAGGAUCACCCAUGUGGUGUUGUGAGUAAGGAGAGUGAUCAGAAGGGCAUUUUUUUU [JMF's solution 30] (Eterna round: R96, puzzle: Same State NG 2)
Input ligand: FMN 200 uM
  apparent KD of MS2 coat protein: 726 nM
[4]
  apparent KD of MS2 coat protein: 354 nM
Input ligand: none
  apparent KD of MS2 coat protein: 456 nM

## UGCCUGAGUCGAGGAUAUUAUGGAUCCUCUAAUACAUGAGGAUCACCCAUGUAAUUAAUUAUACAUGAGAAGGCGACUCAGGCA [SSNG2/12-A2] (Eterna round: R96, puzzle: Same State NG 2)
Input ligand: FMN 200 uM
  apparent KD of MS2 coat protein: 278 nM
[4]
  apparent KD of MS2 coat protein: 6.26 nM
Input ligand: none
  apparent KD of MS2 coat protein: 66.2 nM

## AGUCCAGCCUGAGCUGGACAAAAGCAUGUACAUGAGGAUCACCCAUGUCGUGUACAAGCUUUUUGCUCGUCUUAAAA [Zipper 46 - 5] (puzzle: Sensor for hsa-mir-208a)
[1]
  apparent KD of MS2 coat protein: 376 nM
[2]
  apparent KD of MS2 coat protein: 12.4 nM
[3]
  apparent KD of MS2 coat protein: 334 nM

## UUACUCAUGUAAGGAUAUGCAGCCGAAACGGCUGCAGAAGGUACUAUAAUACAUGAGGAUCACCCAUGUCUUUUUAAUUUAGAC [Mat - Same State NG 1 - JL mod - D82] (Eterna round: R96, puzzle: Same State NG 1)
[4]
  apparent KD of MS2 coat protein: 37 nM

## AUGAAUUUGCGAGGAUAUCGUUUGUUGAAGUUACGAGAAGGCGCUCACUUUACAUGAGGAUCACCCAUGUUUAUGAUAUAUGAU [JR_SSNG1_Sub074] (Eterna round: R96, puzzle: Same State NG 1)
Input ligand: FMN 200 uM
  apparent KD of MS2 coat protein: 24.1 nM
[4]
  apparent KD of MS2 coat protein: 30 nM
Input ligand: none
  apparent KD of MS2 coat protein: 37.1 nM

## UCUUGGUUUUUGCUCGUUUUUUGUGUUGAACAUGAGGAUCACCCAUGUAUUGUACGGUCCAGUUUAGUAGUGGUCCG [JMF 32] (puzzle: Sensor for hsa-mir-208a)
[1]
  apparent KD of MS2 coat protein: 26 nM
[2]
  apparent KD of MS2 coat protein: 13.5 nM
[3]
  apparent KD of MS2 coat protein: 27 nM

## UUGAACAAUUAAGGAUAUCGAGUACAUAUGUUAAACAUGAGGAUCACCCAUGUGGGUUGCGGUAUCGAGAAGGUAAAUUAGAAG [Mat - Same State NG 2 - JL mod - D57] (Eterna round: R96, puzzle: Same State NG 2)
Input ligand: FMN 200 uM
  apparent KD of MS2 coat protein: 22.8 nM
[4]
  apparent KD of MS2 coat protein: 25.3 nM
Input ligand: none
  apparent KD of MS2 coat protein: 34 nM

## AGUCCAGCCUGAGCUGGACAAAAGCAUGUACAUGAGGAUCACCCAUGUUCAUGUACAAGCUUUUUGCUCGUCUUAAG [salish99_208a_r3_028] (puzzle: Sensor for hsa-mir-208a)
[1]
  apparent KD of MS2 coat protein: 606 nM
[2]
  apparent KD of MS2 coat protein: 16 nM
[3]
  apparent KD of MS2 coat protein: 602 nM

## AUUAUUUCAUGAGGAUAUGGCACCUUAUUGGUGCCAGAAGGCAUGUCUAUUGACAUGAGGAUCACCCAUGUAUUAAAUUAUAUA [Eli NG1ss - 89] (Eterna round: R96, puzzle: Same State NG 1)
[4]
  apparent KD of MS2 coat protein: 387 nM

## AGGCUCAGACUAGGAUAUACGUGGUCACAUGAGGAUCACCCAUGUCUCGAGCUUCGGCUCGAGGCGUAGAAGGAGUCUGAGCCA [SSNG2/6-D1] (Eterna round: R96, puzzle: Same State NG 2)
Input ligand: FMN 200 uM
  apparent KD of MS2 coat protein: 119 nM
[4]
  apparent KD of MS2 coat protein: 260 nM
Input ligand: none
  apparent KD of MS2 coat protein: 371 nM

## CACGUCUCGGUAGGAUAUGAGGUGCCAUAGGGAACAGCCUAUGGACAUGAGGAUCACCCAUGUCCUCAGAAGGGCCGGACGUGA [Leonis] (Eterna round: R96, puzzle: Same State NG 2)
Input ligand: FMN 200 uM
  apparent KD of MS2 coat protein: 18.1 nM
[4]
  apparent KD of MS2 coat protein: 48.9 nM
Input ligand: none
  apparent KD of MS2 coat protein: 68.2 nM

## GGGCCAGCUUGUGCUGGGCCUUCGCAUGCACAUGAGGAUCACCCAUGUCGUGUACAUGCUUGGUGCCCGUCUUUCCC [Photon Torp-14] (puzzle: Sensor for hsa-mir-208a)
[1]
  apparent KD of MS2 coat protein: 84.5 nM
[2]
  apparent KD of MS2 coat protein: 20.9 nM
[3]
  apparent KD of MS2 coat protein: 85.8 nM

## AGUCCAGCCUGAGCUGGACAAAAGCAUGUACAUGAGGAUCACCCAUGUUCAUGUACAAGUUUUUUGCUCGUCUUAAA [Zipper 52 - 10] (puzzle: Sensor for hsa-mir-208a)
[1]
  apparent KD of MS2 coat protein: 38.4 nM
[2]
  apparent KD of MS2 coat protein: 11.1 nM
[3]
  apparent KD of MS2 coat protein: 39.6 nM

## GAGGAACAGGCCAACAUGAGGAUCACCCAUGUCCUCGCAUUUCAGGAUAUCUGGAAGAAGAAAAAAGAGAAGGGAAGGUGAAGC [AK SSNG3-V2-34.3] (Eterna round: R96, puzzle: Same State NG 3)
Input ligand: FMN 200 uM
  apparent KD of MS2 coat protein: 198 nM
[4]
  apparent KD of MS2 coat protein: 140 nM
Input ligand: none
  apparent KD of MS2 coat protein: 165 nM

## GAGUGGUAAAGAGGAUAUGCAUUGUUAUUCACUGUAGAAGGUUUUAACAUGAGGAUCACCCAUGUAGGACUAUUCCUGUGUUUC [Parity 63 - Jieux - Same State NG 1] (Eterna round: R96, puzzle: Same State NG 1)
Input ligand: FMN 200 uM
  apparent KD of MS2 coat protein: 14.4 nM
[4]
  apparent KD of MS2 coat protein: 11.8 nM
Input ligand: none
  apparent KD of MS2 coat protein: 17.3 nM

## GCGAGCGUACUUGCAGACAUGAGGAUCACCCAUGUAACUGGACAGGAUAUGGUACCGUUUCGGUACCAGAAGGGUUUACUCAUG [JL SSNG3 3.57] (Eterna round: R96, puzzle: Same State NG 3)
Input ligand: FMN 200 uM
  apparent KD of MS2 coat protein: 67.2 nM
[4]
  apparent KD of MS2 coat protein: 84 nM
Input ligand: none
  apparent KD of MS2 coat protein: 69.1 nM

## GCUAGUAAAAUUGUCAACAUGAGGAUCACCCAUGUAUGUUGGCAGGAUAUCGUUUGCAAAGCAAACGAGAAGGGCUAAACUAGC [Mat - Same State NG 3 - JL Mod - D12] (Eterna round: R96, puzzle: Same State NG 3)
Input ligand: FMN 200 uM
  apparent KD of MS2 coat protein: 58.2 nM
[4]
  apparent KD of MS2 coat protein: 186 nM
Input ligand: none
  apparent KD of MS2 coat protein: 171 nM

## UAGAUUCACGUAGGAUAUCGACCUACAUGAGGAUCACCCAUGUUUUUGAAUAGAUUUUUUAGUUACGAGAAGGACGUUAUGUAU [JR_SSNG2_Sub063] (Eterna round: R96, puzzle: Same State NG 2)
Input ligand: FMN 200 uM
  apparent KD of MS2 coat protein: 96 nM
[4]
  apparent KD of MS2 coat protein: 210 nM
Input ligand: none
  apparent KD of MS2 coat protein: 473 nM

## AGAUCAUGACGAGGAUAUGGAACAUGAGGAUCACCCAUGUAUGUUCCAUAACGCGAAUGACGAAUCCAGAAGGCGUCGUGAUCA [Mat - Same State NG 2 - JL mod - D26] (Eterna round: R96, puzzle: Same State NG 2)
Input ligand: FMN 200 uM
  apparent KD of MS2 coat protein: 18.1 nM
[4]
  apparent KD of MS2 coat protein: 92.1 nM
Input ligand: none
  apparent KD of MS2 coat protein: 116 nM

## GUAGCAUGCAGGCAGGAUAUUCAUAUUAAAACAUGAGGAUCACCCAUGUAGGCCGAAAGGCCUUGGGAGAAGGGCCACAUGCUAC [Xeonanis - 18] (Eterna round: R96, puzzle: Same State 2)
Input ligand: FMN 200 uM
  apparent KD of MS2 coat protein: 36.8 nM
[4]
  apparent KD of MS2 coat protein: 429 nM
Input ligand: none
  apparent KD of MS2 coat protein: 704 nM

## GUUUGACAUGAGGAUCACCCAUGUCAUACGGACACAGGAUAUCGUGGCCUGAAGCCGUCAUGAGAAGGGUGACCAA [Ceaza] (puzzle: Same State 1)
[1]
  apparent KD of MS2 coat protein: 33.8 nM
[2]
  apparent KD of MS2 coat protein: 14.3 nM
[3]
  apparent KD of MS2 coat protein: 12.5 nM

## AGUCCAGCCUGAGCUGGACAAGAGCAUGUACAUGAGGAUCACCCAUGUCAUGUACAAGCUUUUUGCUCGUCUUAAUA [Zipper 49 - 2] (puzzle: Sensor for hsa-mir-208a)
[1]
  apparent KD of MS2 coat protein: 470 nM
[2]
  apparent KD of MS2 coat protein: 14.9 nM
[3]
  apparent KD of MS2 coat protein: 530 nM

## AUAAAACACAUGAGGAUCACCCAUGUGGCCGUAGUCGGCACACAGGAUAUCAAGCAACUAGAGCUUGAGAAGGGUGAGACAAAA [Raar] (Eterna round: R96, puzzle: Same State NG 3)
Input ligand: FMN 200 uM
  apparent KD of MS2 coat protein: 179 nM
[4]
  apparent KD of MS2 coat protein: 4.09 nM
Input ligand: none
  apparent KD of MS2 coat protein: 250 nM

Source: the supplement of paper PMC9170038
